Assay results reported in PMC9806585.

Substrate: NC(=O)CC[C@H](N)C(=O)O
Experiment: cells, lysate or membranes
Settings: standard assay: 0.4 mM oxaloacetate, pyridoxal phosphate, 150 mM sodium borate pH 8.5, 37 °C, enzyme not fully purified

B1: recombinant Arabidopsis GTK (Gln transaminase K) (Arabidopsis thaliana) (protein)
chain: MYLDINGVMIKQFSFKASLLPFSSNFRQSSAKIHRPIGATMTTVSTQNESTQKPVQVAKRLEKFKTTIFTQMSILAVKHGAINLGQGFPNFDGPDFVKEAAIQAIKDGKNQYARGYGIPQLNSAIAARFREDTGLVVDPEKEVTVTSGCTEAIAAAMLGLINPGDEVILFAPFYDSYEATLSMAGAKVKGITLRPPDFSIPLEELKAAVTNKTRAILMNTPHNPTGKMFTREELETIASLCIENDVLVFSDEVYDKLAFEMDHISIASLPGMYERTVTMNSLGKTFSLTGWKIGWAIAPPHLTWGVRQAHSYLTFATSTPAQWAAVAALKAPESYFKELKRDYNVKKETLVKGLKEVGFTVFPSSGTYFVVADHTPFGMENDVAFCEYLIEEVGVVAIPTSVFYLNPEEGKNLVRFAFCKDEETLRGAIERMKQKLKRKV
Km: 300 µM
